± gives the uncertainty stated by the source.
Assay: amyloid nucleation score (Sup35N fusion, yeast selection) (log enrichment); library NNK2; higher = more nucleation; inactive = no reads after selection
Method in brief: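 Nucleation score is defined as the DiMSum log enrichment of output over input reads, with centring on the mode score of non-aggregating sequences. A minimum of 100 input reads was required for each sequence. Reads came from Illumina sequencing of plasmid inserts from psi-negative yeast expressing Sup35N fused to peptides of 20 random codons, induced with 100 μM copper sulfate for 24 hours and grown 7 days at 30°C on medium lacking adenine and uracil.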

Substance	amyloid nucleation score
IFIMQTHFTGRVCPSSVKLP	4.99 ± 0.066
NESNYRVVRGKFKSEFRAEL	3.61 ± 0.13
RKVFLRLCLLVWLNG	-0.292 ± 0.3
RSGLLDMS	-0.129 ± 1.1
GFEQRGIRVMFVPYDINFSV	6.269 ± 0.031
APANVRWLNFSGLDSNGCPY	inactive
SRSCVKH	-1.27 ± 0.55
LNRCLDHRWIPKCVC	1.36 ± 0.46
HNNFIFYFLLNLMICVHYGQ	6.066 ± 0.036
WYIKF	1.54 ± 0.3
TIFMAYTWLNYTVAFLSNVR	-1.01 ± 0.61
NPLRWEWAGVWLRYTR	0.816 ± 0.58
ARFSKHHLTKVLFGKDYQAP	0.235 ± 0.34
TLTNHWLRSLCITSKGTLSC	inactive
WFQLRMVLTGEFEPVLERSR	2.86 ± 0.11
LTVRDLVPPPAMANRFLTVI	-0.016 ± 0.44
YWSVV	3.73 ± 0.11
KWFGSRFYYLYKPPLFSHLA	inactive
CWNDVIQKMVQYNTINFVLS	4.88 ± 0.063
WTRCPQSRYHVLVRVYSYWA	0.193 ± 0.27
QRGFLRVPSLWCSFCLH	-0.176 ± 1.1
IDYVFAAGDKWWVSVLL	-0.412 ± 1.1
GPWGGWSVT	inactive
YTFYLNF	5.27 ± 0.053
KMPWMTCSHVTFTRIHSKIS	-0.57 ± 0.48

Substance	amyloid nucleation score
HIVVTKTWAGQRHVQFIM	1.07 ± 0.26
HGLYCYPGYSDQCVTFVHGY	inactive
WHNITWYMFGPFMPGGEMLM	0.446 ± 0.5
YGGDVSP	0.1 ± 0.4
PAYRYKHSNWKNPRQ	inactive
TLSVTEGYSNLTSMWYGCKR	3.23 ± 0.15
AEANLNFGLMDGAMSVKRAE	-0.329 ± 0.55
YPFILVVTIEYACLVRRLGV	-0.309 ± 0.23
FEFMNDFQSYVRMFRCLVFL	-0.401 ± 0.43
LRLGHVIPGVKNCREEND	-0.745 ± 0.3
CFCPMLLLYIVRP	7.483 ± 0.023
LASTALVLDP	1.14 ± 0.31
TSSYTWGVEPDASRTILVDT	0.4 ± 0.32
RMVSPSPMAQNKLGYATTLG	0.02 ± 0.49
SGSLSINDNSCYGENTNTVL	-1.21 ± 1.1
TPVWVGVSLVPPIAPTTWIN	0.288 ± 0.28
AKVNCISIITEDILILSEMV	inactive
YCGGFGGFWVEYWWDKYPTC	-0.171 ± 0.23
RNAEA	-0.5 ± 0.63
AISPVGYCDSTFVFSTSLCG	4.13 ± 0.12
HVWLDLTYGNILQNRNCLTW	-0.335 ± 0.25
LFLSLRVRRYVQHKKSGSAG	0.082 ± 1.1
FIICTEWPSDLLNWSSVANW	-0.658 ± 1
TCSRERGRRWFGICASYSCE	0.629 ± 0.47
RNSIFNG	-0.796 ± 0.62

Substance	amyloid nucleation score
YHSTTLTFERAQPSHNNTRL	3.32 ± 0.1
LVYDKENIGRLDRRRVWRRQ	0.767 ± 0.74
CKLPDVTIMDYLLPFM	-0.333 ± 0.41
VLAVSLIYALTP	inactive
DWQCRGLQYQWFGGVWDANV	-0.882 ± 0.64
INTSNQFFGYLYLWVSRYRY	-1.03 ± 0.54
FMYHSYSGRPNNHAIGKHFR	-0.405 ± 0.49
VAMSCGRSYLKCLMACGLHM	-0.053 ± 1
LLFMWTWVVVIGRKYANNYF	inactive
FLRNWGTAWLVGFNSAKFIC	-0.955 ± 0.63
FYEYTDTASAGPDETLYLRN	0.022 ± 0.63
FYSLQFLTILLVTFMEATYP	-0.165 ± 0.27
IVTTKWGNSHVSSVRIKARL	5.42 ± 0.084
IGNAMHSLHSIHVRCRHSLE	0.713 ± 0.74
SVGRHS	-0.841 ± 0.62
ALFIRVYMLFRRCEECSLQV	7.575 ± 0.055
YHKAIFFGF	-0.563 ± 0.64
TLCMSRGNSYCCMQSFSEKD	5.05 ± 0.063
WLLWNSECIANCAFTRYSMF	-0.079 ± 0.33
MRFRLCNYLLRRVWDLNRGA	-1.18 ± 0.39
LLNFYGGMWRGYLTLRYVFG	0.201 ± 0.6
DIRIL	-0.635 ± 0.44
FLGLTDWRVDYCSEWQGFAQ	-0.199 ± 1.1
DLKYLGLA	-0.535 ± 0.53
VSDSNFNNGRYWLSVWRDVV	4.25 ± 0.067

Substance	amyloid nucleation score
FTLLSMNRSGFIIRVPDAV	0.035 ± 0.24
GYHDRLSPSQTLPPTRNVLC	0.312 ± 0.8
LNLKRLLLQLFSMPMPVFHV	-0.023 ± 0.49
FHARPDSNPEENMVDSGI	inactive
HWTYTFRLNSSSSIYQNCSD	-0.71 ± 1
VIPYISYLDIGTLVLLAFID	-0.373 ± 1
VCSPIG	0.063 ± 0.45
DTGNPVVWKRTVNCLSQVLW	0.368 ± 0.62
PLERKRLSHCRWLGRRRLGG	1 ± 0.34
AVGYVMLMEMEALPISMWRG	7.027 ± 0.054
VKFCIMSGSTKTINNYSQAR	5.57 ± 0.09
SFDSVELARGTASCRVAYFV	0.731 ± 0.35
VVILFVLGLVNPELS	0.649 ± 0.55
SSMGIVGPYGWFSTSMVNIV	0.895 ± 0.28
MSNARRFSMNDSYNIVLCWE	-0.111 ± 0.63
QLVFYSNFVSKDVNVDLQWL	5.75 ± 0.062
KLGLVKMSPYIMFTHVCDGW	-0.217 ± 0.23
IWSCRGQLGSSFTPSGNCTG	1.05 ± 0.37
SVKILPVISTTPFGV	-0.922 ± 0.39
ARNYGRTWHTSEESWYFGEV	5.8 ± 0.081
GVWICFRSAMNSIKACFNNR	5.395 ± 0.04
YIIFGSRLVDRGSLQ	2.95 ± 0.16
ARLVYQLATRTCCFSQ	-0.032 ± 1.1
EVGVEGEIF	-0.56 ± 0.4
VNFPLVSGG	0.114 ± 0.38

Substance	amyloid nucleation score
VANRIMLGSLGMGFVVGSSM	-0.033 ± 0.43
LCEALRFVIYCKLTSFVPFN	-0.632 ± 0.61
SVVVWDSSPCIGGSRVADS	0.56 ± 0.57
MRFNDTENWGVSDVISSNDF	inactive
VDNYEQLTMKNEHETNT	-0.902 ± 0.45
CMQVYTVEYTGFCCATRARK	5.09 ± 0.066
ATRGHIWDCSFGADYQCIPS	5.97 ± 0.063
RHSLYVFY	1.69 ± 0.33
TTMSTGARGLSRCLSVVFRR	3.08 ± 0.12
PRLKMLRWAGVNQS	-0.011 ± 0.4
AISILNCSMMLRIWPSTAAL	0.059 ± 0.5
TWNSANFFIKLRQSVFYLSR	-1.46 ± 1.1
KRDLGFRVVLWYLW	-0.942 ± 0.6
GLQSVDGLQNTYLGSNAVVD	0.87 ± 0.26
HLESAWSRVSTDRCTNTWTV	0.506 ± 0.45
FKQLIMGYS	3.24 ± 0.075
NLRYVFRFII	2.9 ± 0.073
VASGDSVLPKDIVFFSSIQG	-0.653 ± 0.29
NNFWSNGG	-0.285 ± 0.48
GLCMYGVTAKRMLVVWRERG	8.804 ± 0.046
AGDTLWNGGMVEWFVWRLPG	0.178 ± 0.74
IIKLPWFWDAFKAARQ	-0.069 ± 0.3
YWELDCTGYEGGMIRREWEI	0.586 ± 0.81
VHSSVRQMSDY	0.168 ± 0.4
IVILTC	0.464 ± 0.26

Substance	amyloid nucleation score
KFSGRYWTGIEGVRISVCLH	-0.778 ± 0.56
SALSGRYAKTLRNGHGLYQE	inactive
LWLVSKAYRYLPYSDWKSAL	0.161 ± 0.77
SNGTWLKNLGGPPPGRAMPW	0.419 ± 0.34
SKKTIVFGGTIRTTALPGPG	-0.592 ± 0.76
AWRGFTSIGAYYAQFGLGVA	0.431 ± 0.36
EYIYTIGYGL	inactive
SSRVVVLNYATRRGGQVSGR	0.496 ± 0.38
LHSATNG	0.208 ± 0.37
NSPPVLLHMWRFRRRDTRRY	-0.551 ± 0.61
LACVKMFSGVFV	0.06 ± 0.65
SVDRVYGSTFIFSRGDR	8.113 ± 0.022
MLKSYDKKWWGTMAWSNSSV	0.711 ± 0.34
KKAIFWWFWDHDSCL	inactive
CYSKLNASSVCIKFLPSQHE	-0.314 ± 0.27
VKTQSTVWSYR	0.409 ± 0.28
GVFYDKYRGSVWSEDCKLWT	inactive
RVIHKFLYK	6.288 ± 0.06
LALSFIMMCPYR	4.95 ± 0.079
QYWQYWSWIGCVCLLCGWRF	0.91 ± 0.26
SRNLTVNK	-0.072 ± 0.79
ETSMYVYLGI	-0.384 ± 0.35
DNCIDSCCYPLVSRVLEL	0.354 ± 0.64
KFSLDF	-0.837 ± 0.53
IYSISVLHCKGDLVYS	inactive

Substance	amyloid nucleation score
SFYVIRVGSLPFRS	3.25 ± 0.075
FCAQITPHRISWLWWQINRQ	-0.304 ± 1.1
VYVIFPPLSTSLPVSMSYNL	-0.548 ± 1.1
VDFFVFHLVTDSIMSYAHCM	0.633 ± 0.66
RSYFSDFH	inactive
CAPYTVLGYGLGTQFHAGEN	1.8 ± 0.1
YMLNHVIQNMSSWCEVT	-0.103 ± 0.34
SDLTIVVSMLGFIPCSCHAF	6.328 ± 0.05
FCLVY	0.744 ± 0.19
ITISII	0.044 ± 1.1
SKFLM	-1.14 ± 0.48
KLRIVMMNRIFTSNL	5.16 ± 0.1
RLIYLCGSRGPNTEFVRVKR	3.21 ± 0.055
CMTGNYYQP	inactive
PGDGTFLMFLACGCFRPFCG	-0.181 ± 0.49
CMFFCYYLWMMRMVWSVTWS	-0.589 ± 0.53
FACRWFQSWSLRYLFPELTL	-0.238 ± 0.5
PFRKDVTLPLIFVLHVLQPD	-0.191 ± 0.54
CGRTDNWGNDRNASRRHGGL	0.694 ± 0.24
DVLCS	0.626 ± 0.57
WSLKKLITDRFGSSCSAALH	inactive

From the supplement of paper PMC12042874
